Consider four molecules from patent US20250262210A1 (TRUSTEES OF COLUMBIA UNIVERSITY IN THE CITY OF NEW YORK, published 2025).

One test addresses T1, LZTR1-FLAG (human, UniProt Q8N653 1-840).
T1 construct: Expressed in HEK 293T, HeLa or U87 cells; used as cell lysate; also called LZTR1 wild type-FLAG; LZTR1 WT; not shown: FLAG tag at the C-terminus
T1 sequence (looked up): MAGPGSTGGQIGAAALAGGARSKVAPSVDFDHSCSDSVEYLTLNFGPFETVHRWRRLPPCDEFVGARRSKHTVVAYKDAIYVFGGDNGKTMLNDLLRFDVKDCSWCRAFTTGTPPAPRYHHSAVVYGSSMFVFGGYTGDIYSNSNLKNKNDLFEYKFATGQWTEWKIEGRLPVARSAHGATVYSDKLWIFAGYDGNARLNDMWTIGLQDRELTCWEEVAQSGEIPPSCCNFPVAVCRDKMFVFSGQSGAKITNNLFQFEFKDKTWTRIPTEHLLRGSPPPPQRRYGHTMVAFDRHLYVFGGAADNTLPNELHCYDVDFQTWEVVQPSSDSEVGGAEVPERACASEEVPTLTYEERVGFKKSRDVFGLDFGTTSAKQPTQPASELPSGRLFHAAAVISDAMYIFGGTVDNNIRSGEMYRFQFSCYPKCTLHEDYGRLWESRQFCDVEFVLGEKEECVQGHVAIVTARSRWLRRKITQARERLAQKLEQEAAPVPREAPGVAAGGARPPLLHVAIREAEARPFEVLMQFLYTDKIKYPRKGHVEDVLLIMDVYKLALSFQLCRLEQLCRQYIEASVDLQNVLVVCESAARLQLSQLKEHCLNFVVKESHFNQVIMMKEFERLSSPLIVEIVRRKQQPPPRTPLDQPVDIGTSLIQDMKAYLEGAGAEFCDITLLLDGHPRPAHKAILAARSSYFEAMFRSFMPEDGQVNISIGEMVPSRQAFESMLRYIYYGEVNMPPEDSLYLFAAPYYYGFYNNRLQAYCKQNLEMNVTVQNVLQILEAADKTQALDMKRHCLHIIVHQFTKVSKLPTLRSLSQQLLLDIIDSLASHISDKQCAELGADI
Nature of the test: IP/MS, LZTR1 wild type-FLAG, U87. A digest of the protocol:
(§1)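 Extracted peptides in 3% acetonitrile/0.1% formic acid ran on a 50 cm C18 column into an Orbitrap Fusion, with MaxQuant identification and spectral counting.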

Another test addresses T2, LZTR1 R810W-FLAG (human, UniProt Q8N653 1-840).
T2 construct: Stably expressed in U87 cells by lentivirus; also called LZTR1-FLAG-R810W; LZTR1 RW; not shown: FLAG tag
T2 sequence (looked up): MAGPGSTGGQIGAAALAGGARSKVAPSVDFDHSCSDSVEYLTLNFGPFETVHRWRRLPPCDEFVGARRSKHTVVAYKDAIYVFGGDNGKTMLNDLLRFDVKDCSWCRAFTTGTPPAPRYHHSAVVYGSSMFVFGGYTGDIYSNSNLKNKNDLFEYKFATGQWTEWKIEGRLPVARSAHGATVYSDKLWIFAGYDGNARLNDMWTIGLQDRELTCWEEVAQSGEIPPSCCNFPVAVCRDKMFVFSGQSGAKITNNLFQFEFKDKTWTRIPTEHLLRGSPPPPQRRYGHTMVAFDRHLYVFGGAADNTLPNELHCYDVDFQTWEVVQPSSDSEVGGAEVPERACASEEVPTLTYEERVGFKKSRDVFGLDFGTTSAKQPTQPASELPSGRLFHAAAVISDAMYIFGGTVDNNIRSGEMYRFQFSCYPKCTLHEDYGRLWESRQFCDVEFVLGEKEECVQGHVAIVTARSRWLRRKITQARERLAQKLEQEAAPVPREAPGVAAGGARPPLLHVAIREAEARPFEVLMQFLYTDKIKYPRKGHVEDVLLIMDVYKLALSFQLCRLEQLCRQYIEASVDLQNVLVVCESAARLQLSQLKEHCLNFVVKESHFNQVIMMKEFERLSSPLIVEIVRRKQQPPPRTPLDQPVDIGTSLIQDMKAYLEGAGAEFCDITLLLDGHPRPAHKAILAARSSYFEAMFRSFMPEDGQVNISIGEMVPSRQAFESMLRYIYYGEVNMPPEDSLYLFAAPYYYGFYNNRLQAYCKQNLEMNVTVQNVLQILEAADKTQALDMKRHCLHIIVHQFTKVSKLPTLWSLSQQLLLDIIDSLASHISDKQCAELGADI
Nature of the test: IP/MS, LZTR1 R810W-FLAG, U87. In short, it runs like this: as §1

B1: NGLY1 (other, human, UniProt Q96IV0 2-654, looked up)
chain: AAAALGSSSGSASPAVAELCQNTPETFLEASKLLLTYADNILRNPNDEKYRSIRIGNTAFSTRLLPVRGAVECLFEMGFEEGETHLIFPKKASVEQLQKIRDLIAIERSSRLDGSNKSHKVKSSQQPAASTQLPTTPSSNPSGLNQHTRNRQGQSSDPPSASTVAADSAILEVLQSNIQHVLVYENPALQEKALACIPVQELKRKSQEKLSRARKLDKGINISDEDFLLLELLHWFKEEFFHWVNNVLCSKCGGQTRSRDRSLLPSDDELKWGAKEVEDHYCDACQFSNRFPRYNNPEKLLETRCGRCGEWANCFTLCCRAVGFEARYVWDYTDHVWTEVYSPSQQRWLHCDACEDVCDKPLLYEIGWGKKLSYVIAFSKDEVVDVTWRYSCKHEEVIARRTKVKEALLRDTINGLNKQRQLFLSENRRKELLQRIIVELVEFISPKTPKPGELGGRISGSVAWRVARGEMGLQRKETLFIPCENEKISKQLHLCYNIVKDRYVRVSNNNQTISGWENGVWKMESIFRKVETDWHMVYLARKEGSSFAYISWKFECGSVGLKVDSISIRTSSQTFQTGTVEWKLRSDTAQVELTGDNSLHSYADFSGATEVILEAELSRGDGDVAWQHTQLFRQSLNDHEENCLEIIIKFSDL
As for B1, the binding result with LZTR1-FLAG and in the test with LZTR1 R810W-FLAG was “binds” each time.

B2: PAFAH1B1 (other, human, UniProt P43034 1-410, looked up)
chain: MVLSQRQRDELNRAIADYLRSNGYEEAYSVFKKEAELDVNEELDKKYAGLLEKKWTSVIRLQKKVMELESKLNEAKEEFTSGGPLGQKRDPKEWIPRPPEKYALSGHRSPVTRVIFHPVFSVMVSASEDATIKVWDYETGDFERTLKGHTDSVQDISFDHSGKLLASCSADMTIKLWDFQGFECIRTMHGHDHNVSSVAIMPNGDHIVSASRDKTIKMWEVQTGYCVKTFTGHREWVRMVRPNQDGTLIASCSNDQTVRVWVVATKECKAELREHEHVVECISWAPESSYSSISEATGSETKKSGKPGPFLLSGSRDKTIKMWDVSTGMCLMTLVGHDNWVRGVLFHSGGKFILSCADDKTLRVWDYKNKRCMKTLNAHEHFVTSLDFHKTAPYVVTGSVDQTVKVWECR
For B2, the binding result in the test with LZTR1-FLAG and in the test with LZTR1 R810W-FLAG was “binds” throughout.

B3: POR (other, human, UniProt P16435 2-677, looked up)
chain: GDSHVDTSSTVSEAVAEEVSLFSMTDMILFSLIVGLLTYWFLFRKKKEEVPEFTKIQTLTSSVRESSFVEKMKKTGRNIIVFYGSQTGTAEEFANRLSKDAHRYGMRGMSADPEEYDLADLSSLPEIDNALVVFCMATYGEGDPTDNAQDFYDWLQETDVDLSGVKFAVFGLGNKTYEHFNAMGKYVDKRLEQLGAQRIFELGLGDDDGNLEEDFITWREQFWPAVCEHFGVEATGEESSIRQYELVVHTDIDAAKVYMGEMGRLKSYENQKPPFDAKNPFLAAVTTNRKLNQGTERHLMHLELDISDSKIRYESGDHVAVYPANDSALVNQLGKILGADLDVVMSLNNLDEESNKKHPFPCPTSYRTALTYYLDITNPPRTNVLYELAQYASEPSEQELLRKMASSSGEGKELYLSWVVEARRHILAILQDCPSLRPPIDHLCELLPRLQARYYSIASSSKVHPNSVHICAVVVEYETKAGRINKGVATNWLRAKEPAGENGGRALVPMFVRKSQFRLPFKATTPVIMVGPGTGVAPFIGFIQERAWLRQQGKEVGETLLYYGCRRSDEDYLYREELAQFHRDGALTQLNVAFSREQSHKVYVQHLLKQDREHLWKLIEGGAHIYVCGDARNMARDVQNTFYDIVAELGAMEHAQAVDYIKKLMTKGRYSLDVWS
In the case of B3, the binding result with LZTR1-FLAG and with LZTR1 R810W-FLAG was “binds” in each case.

B4: PNPLA2 (other, human, UniProt Q96AD5 1-504, looked up)
chain: MFPREKTWNISFAGCGFLGVYYVGVASCLREHAPFLVANATHIYGASAGALTATALVTGVCLGEAGAKFIEVSKEARKRFLGPLHPSFNLVKIIRSFLLKVLPADSHEHASGRLGISLTRVSDGENVIISHFNSKDELIQANVCSGFIPVYCGLIPPSLQGVRYVDGGISDNLPLYELKNTITVSPFSGESDICPQDSSTNIHELRVTNTSIQFNLRNLYRLSKALFPPEPLVLREMCKQGYRDGLRFLQRNGLLNRPNPLLALPPARPHGPEDKDQAVESAQAEDYSQLPGEDHILEHLPARLNEALLEACVEPTDLLTTLSNMLPVRLATAMMVPYTLPLESALSFTIRLLEWLPDVPEDIRWMKEQTGSICQYLVMRAKRKLGRHLPSRLPEQVELRRVQSLPSVPLSCAAYREALPGWMRNNLSLGDALAKWEECQRQLLLGLFCTNVAFPPEALRMRAPADPAPAPADPASPQHQLAGPAPLLSTPAPEARPVIGALGL
B4: the binding result with LZTR1-FLAG and in the test with LZTR1 R810W-FLAG was “binds” each time.
